Assay results as given in the RNAGym collection of RNA variant scans (doi:10.1073/pnas.2313332121).

B1: TPR t1 (parent)
chain: GACCAAUCUGCCCUCAGAGCUCGAGAACAUCUUCGGAUGCAGAGGAGGCAGGCUUCGGUGGCGCGAUAGCGCCAACGUCCUCAACCUCCAAUGCAUCCCACCACAUGAUGAUGCCUGAAGAGCCUUGGUUUUUUG

Variants of: B1
Experiment: polymerase ribozyme fitness, log enrichment relative to wild type (log ratio); higher = more active; in vitro selection for triplet polymerase activity
Outline: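 Streptavidin-bead capture of gel-excised extended constructs, followed by RT-PCR, closed a single triplicate in vitro selection round. That round began by annealing PCR-built, transcribed mutant libraries of each subunit of a heterodimeric triplet polymerase ribozyme with a biotinylated primer, the partner subunit and triplets, then incubating them frozen at −7 °C. After Illumina sequencing of inputs and outputs, genotypes needed ≥10 input reads and ≥1 read per output. Fitness is the base-2 logarithm of genotype enrichment over wild-type enrichment, using inverse-variance-weighted replicate averages.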

Variant	polymerase ribozyme fitness (log ratio)
A5G A29C	-1.82
A5C G51A C86G	-4.05
A5C C79U C104A	-2.03
A5G A83C U126A	-1.99
A5C U38G U96C C104U	-2.11
C4G U9C C70U C89U U96A	-3.09
A5G C8G G47A G69U C80G	-3.96
C4G U21C G45A U78A C124G	0.886
C4U C34A G52C C99A C102U U106C	-6
C4U A37G A50C C82A	-1.39
A5C A18G	-4.19
C4U C70U C80A	-5.32
A5C C8A A37C G42U C104U	-2.13
C4U G17U G48A U54G G61A G77U U130C	-3.69
C4G G57A G58C A95C G113U U125C	-6.6
C4G U96A G127U	-1.19
A5C C62U	-0.355
C4U G69U	-0.399
C4U G69A	-2.91
A5G C12A U132A U133A	-1.41
A5C G63A G69U C101U	-1.54
A5G A26U U32C	-2.95
A5G A26C A100U U106A C124A	-1.48
C4U G47A G107U C124U	-3.15

Variant	polymerase ribozyme fitness (log ratio)
A5C G48A	-1.85
A5G C70G G71U G120A U131A	-4.58
A5G C85U G113U G122U	-3.92
C4U G48U G93A	-2.39
A5C C22A	-4.57
C4G U7C C56U G60U C101A	-6.75
C4U G19A C56G U106A C123G	-3.72
C4U U54A C62G G93C G120U U130C	-5.69
A5C G10A C34A G63U C123U	-4.02
A5C C20A A43C G44C G71A C97U U106A C115A	-6.63
A5G C11U G48U G69A U131C	-3.72
A5C A118U U133A	-1.14
A5C U7C G17U C86G	-3.53
A5G C15A G61A	-0.776
C4G G63A U106G A118G C123G	-2.77
A5C G17U G120A	-3.4
C4U G71A G77U	-1.79
C4U G44U C53U C86G	-3.52
A5C C8G C40U U112G U133G	-0.864
C4U G63U C124G	0.825
C4U G52A C114A	-2.66
C4U U9G A24U G57C G58U A84G C85A C114G C123G	-7.47
A5C G39U C64A A68U U116C G127U	-5.8
C4U A43U C56G C89U U112C	-0.836

Variant	polymerase ribozyme fitness (log ratio)
A5C G63C C114U	-2.9
A5G C89U	-0.12
A5C G45U C73G U81C G120A G122U	-3.02
A5C C13U A84C U131A	-2.02
C4U A18G	-3.62
A5C C98U U112A G128C	-4.48
A5G A6U A46G C123A	0.996
A5C U81A	-1.65
C4U G10C C20A G48U A119G	-3.45
A5C C72U C82G U87A C123G	-3.15
A5C A6U G69U A121G	2.34
C4G G110U	-2.64
C4U C11G G60A C72G C82U C97U A108G G120A	-3.71
A5C G44A A111U	-5.64
C4U C11G C49U G51A C72U C80U C94G	-1.9
A5C C115U G120A G122A U134G	-4.36
C4U A41U	-1.8
A5C U7C A74C A90U	-1.47
C4U G51U A121C	-1.96
A5G A103C C104A	-3.08
C4G G61C G69U U112A	-1.95
A5C G60A C101U	-0.437
A5G A6C C11G C73A G93C	-1.55
A5C G23U G71C U112C U126A U131A	-4.82

Variant	polymerase ribozyme fitness (log ratio)
A5G C15U C72A C101U C124U	0.428
A5C C12U G48A	-0.983
C4U C97A	-5.21
C4U G61U	-0.685
C4U G61C	-2.8
A5C G19A C89A C124G	-1.76
A5C G117C	-3.15
C4U C12U C13U G69C C124G	-0.455
A5C A24U	-5.29
C4U C70A G128C	-4.51
C4U G63A	-1.64
C4U C76G C123A	-0.394
A5C G45U C62U	-1.97
A5G C12A U59C	0.0118
C4U C13G C56G C72U C73A	-5.32
A5C C73A C102A	-2.49
A5C A6U U32C G69C	-1.62
A5C C72A U96A G127A	-2.31
C4U G44U G61A C80G C89G C114U U131G	-7.14
A5G C53A	0.65
A5C C13U A83G	-1.43
A5C C53G U92G G117C U129C U133C	-5.53
A5G C101A C115A	-0.823
C4U A50G G93A G117U A118U	-4.55

Variant	polymerase ribozyme fitness (log ratio)
A5C U9G	0.0336
C4U G48C G61U C98U U112C	-0.785
C4U G71U	-0.506
C4G G61U G93A	-2.57
A5C C49U C53A	-1.24
C4U C8G G36U U38A G44U C124A	-5.08
C4U U59A	-0.304
C4G U9A C62G U92A A95G U112C G113A	-5.53
A5G C12U G113U U125C	-2.74
A5C C49G C53A U54G C98U U106A G128U	-2.13
C4U C11G	0.407
A5G C13U A103U	-4.92
C4G U14A C73G G120A	-3.16
A5C G60C	-0.361
C4U C53U C82A U129C	-2.91
A5C C15G G61A C114U	-6.53
C4U C49U	-0.875
A5G C11G C28U U59G A118G G127U G135U	-2.91
C4U C49U G52A	-3.12
A5G C13U A46U C56A C72G U78A G110A	-3.02
A5C G35A A41U U112A	-5.8
C4G U9G G61U G120C	0.941
C4U G69C C82A C88G A91U U106A	-5.66
A5C C28U U59C C123U	-3.1

Variant	polymerase ribozyme fitness (log ratio)
A5G C114G	-2.13
C4U U78C	-0.902
A5C G51A C62U U78G	-3.87
C4U A18C C53A C88G	-3.41
C4U G51C	-2.89
C4U C13U U38A C53A	-1.25
C4U A74U U92G	-3.59
C4G U7C C34U U38G U54G G69U U109A A111G	-5.81
C4U A66G C124G	0.544
C4U C34A A90C C114G G135A	-5.15
A5C G47U G48C G71A C102A	-6.35
C4U G44C C64U A119U U133A	-2.68
A5C G47A A66G	-3.08
A5C C12U	0.118
C4G U9C U112C G117A	-1.01
A5C C28U G57C	-3.47
C4G U21A A24G A46U U125A	-4.02
C4U G39U G71U G117A U133A	-3.6
A5G C13A G61A	-1.98
C4U A5C C12G C62U C89U C123G	-1.41
A5C C15G U54G C89U U116G G117A C124G	0.693
A5G C11G A16G G63U A74C G77U A95C G117U	-2.32
A5C A26U	-5
C4U G135U	-1.43

Variant	polymerase ribozyme fitness (log ratio)
C4U C12U G61A	-0.369
A5C G45A A83C U87G G120A U131A	-0.712
A5C A18C C123A U130A	-1.87
C4U G110A	-1.37
C4U G110U	-1.93
A5G C11A G58U	-1.23
A5C U112G U130C	-0.277
C4U C12G C15G G117C	0.829
C4U C13A A26U U55G C62U	-4.16
A5C G71U C82A C101G	-2.98
A5G C72G U87A A118U	-1.92
C4U U109A	-5.02
A5C A18G G63C C88A C101A G120U	-4.57
C4U G60U	-0.43
C4U G48U U92G G113C	-3.72
C4U C12G G17C G48A U54C C104A C115G	-2.54
C4U A16G G60C C79A	-4.11
A5C A37U G39C C86A C124G	-3.87
C4U U59A C62A A100C U106A C124G	-0.734
C4G G61C C82G C123U	-3.08
C4G U9A U78C U87G C104A C123U	-2.05
C4U G47A C56U C73U C101U A119G G120U G127A	-0.428
A5C G48A C82G	-1.18
